Laboratory results published in publication PMC7764402.

Target: Vorin-cat (C-terminal catalytic mART domain of Vorin), wild type (Erwinia amylovora ATCC BAA-2158)
Assay: SEC; IMAC-purified Vorin-cat/VorinI (5 mg) on HiLoad 16/60 Superdex-200; fractions analysed by SDS-PAGE with Coomassie stain; dialysed against 50 mM Tris pH 7.5, 250 mM NaCl, 10% glycerol before the run

Substance: VorinI (Vorin Immunity protein) (natural protein)
- stoichiometry N (VorinI per Vorin-cat): 1
